The target in test [1] is T1, recombinant preparation of soluble MAC-1 (UniProt P11215 17-1104; P05107 23-700). The experiment in a line: MAC-1 capture ELISA titer over UV concentration; freeze/thaw study, F5, held at 5° C. (control). For orientation: ELISA stands for enzyme-linked immunosorbent assay.
Test [2] addresses T1, recombinant preparation of soluble MAC-1. Description: MAC-1 capture ELISA titer over UV concentration; F4 after three freeze/thaw cycles -70° C. to 5° C.
Test [3] has the same target. Description: MAC-1 capture ELISA titer over UV concentration; F4 after three freeze/thaw cycles -20° C. to 5° C.
For test [4] the target is unchanged. The experiment in a line: MAC-1 capture ELISA titer over UV concentration; freeze/thaw study, F3, held at 5° C. (control).
The target is the same in test [5]. Description: MAC-1 capture ELISA titer over UV concentration; freeze/thaw study, F2, held at 5° C. (control).
The target is the same in test [6]. Description: MAC-1 capture ELISA titer over UV concentration; F2 after three freeze/thaw cycles -70° C. to 5° C.
Test [7] shares this target. The experiment in a line: MAC-1 capture ELISA titer over UV concentration; freeze/thaw study, F1, held at 5° C. (control).
Test [8] shares this target. The experiment in a line: MAC-1 capture ELISA titer over UV concentration; F5 after three freeze/thaw cycles -20° C. to 5° C.
Test [9] has the same target. The experiment in a line: MAC-1 capture ELISA titer over UV concentration; F3 after three freeze/thaw cycles -20° C. to 5° C.
The target is the same in test [10]. Description: MAC-1 capture ELISA titer over UV concentration; F2 after three freeze/thaw cycles -20° C. to 5° C.
For test [11] the target is unchanged. The experiment in a line: MAC-1 capture ELISA titer over UV concentration; F1 after three freeze/thaw cycles -20° C. to 5° C.
The target is the same in test [12]. The experiment in a line: MAC-1 capture ELISA titer over UV concentration; F1 after three freeze/thaw cycles -70° C. to 5° C.
Test [13] shares this target. The experiment in a line: MAC-1 capture ELISA titer over UV concentration; F3 after three freeze/thaw cycles -70° C. to 5° C.
Test [14] shares this target. The experiment in a line: MAC-1 capture ELISA titer over UV concentration; F5 after three freeze/thaw cycles -70° C. to 5° C.
The target is the same in test [15]. The experiment in a line: MAC-1 capture ELISA titer over UV concentration; freeze/thaw study, F4, held at 5° C. (control).

B1: recombinant humanized anti-CD18 antibody (rhuMAb CD18) (antibody, V domains shown)
VH: EVQLVESGGGLVQPGGSLRLSCATSGYTFTEYTMHWMRQAPGKGLEWVAGINPKNGGTSHNQRFMDRFTISVDKSTSTAYMQMNSLRAEDTAVYYCARWRGLNYGFDVRYFDVWGQGTLVTVSS
VL: DIQMTQSPSSLSASVGDRVTITCRASQDINNYLNWYQQKPGKAPKLLIYYTSTLHSGVPSRFSGSGSGTDYTLTISSLQPEDFATYYCQQGNTLPPTFGQGTKVEIKR
notes: Tested as an F(ab')2 of two light and two heavy chains linked by disulfide bonds, made in E. coli; It was humanized from murine muMAb H52; It says the antibody is directed to the CD18 chain of MAC-1; also called anti-CD18 F(ab')2 antibody; humanized H52 antibody
Take B1: the “Specific Activity (MAC-1/UV)” value is 1.14 ratio (MAC-1/UV) in test [1]; 1.06 ratio (MAC-1/UV) in [2]; 1.09 ratio (MAC-1/UV) in test [3]; 1.1 ratio (MAC-1/UV) in [4]; 1.14 ratio (MAC-1/UV) in test [5]; 1.13 ratio (MAC-1/UV) in test [6]. Also, the “Specific Activity (MAC-1/UV)” value in test [7] was 1.05 ratio (MAC-1/UV); in test [8], 1.09 ratio (MAC-1/UV); in test [9], 1.08 ratio (MAC-1/UV); in test [10], 1.2 ratio (MAC-1/UV); in [11], 1 ratio (MAC-1/UV); in test [12], 1.03 ratio (MAC-1/UV). Besides, the “Specific Activity (MAC-1/UV)” value in test [13] was 1.1 ratio (MAC-1/UV); in test [14], 1.09 ratio (MAC-1/UV); in test [15] it was 0.98 ratio (MAC-1/UV).

These data come from patent publication US6991790 (Genentech, dated 2006).
